Experimental findings from the Human Domainome abundance scans (Beltran et al. 2025) are described below.

± gives the uncertainty stated by the source.

The data set is described as follows: abundance fitness (aPCA) (normalised: wild type 0, dead -1); higher = more abundant; growth selection in yeast, the domain comes from the species named. Particulars: Homo sapiens.
Turning to “BAG family molecular chaperone regulator 3 P52A, O95817”, the abundance fitness was -0.727 ± 0.16.
Next, “BAG family molecular chaperone regulator 3 P52C, O95817”: -0.092 ± 0.3; “BAG family molecular chaperone regulator 3 P52D, O95817”: -0.542 ± 0.42; “BAG family molecular chaperone regulator 3 P52E, O95817”: -0.948 ± 0.38.
For the substance “BAG family molecular chaperone regulator 3 P52G, O95817”, the abundance fitness is -0.389 ± 0.1.
Consider “BAG family molecular chaperone regulator 3 P52H, O95817”, for which the abundance fitness was -0.542 ± 0.48.
Regarding “BAG family molecular chaperone regulator 3 P52K, O95817”, the abundance fitness is -0.039 ± 0.22.
The result for “BAG family molecular chaperone regulator 3 P52L, O95817” reads -0.741 ± 0.12; that for “BAG family molecular chaperone regulator 3 P52M, O95817”, -1.07 ± 0.46; that for “BAG family molecular chaperone regulator 3 P52R, O95817”, -0.633 ± 0.12.
With “BAG family molecular chaperone regulator 3 P52S, O95817”, the abundance fitness was -0.303 ± 0.11.
As for “BAG family molecular chaperone regulator 3 P52T, O95817”, the abundance fitness is -1.12 ± 0.39.
Next, “BAG family molecular chaperone regulator 3 P52W, O95817”: -0.837 ± 0.22; “BAG family molecular chaperone regulator 3 P55A, O95817”: 0.013 ± 0.078; “BAG family molecular chaperone regulator 3 P55C, O95817”: 0.133 ± 0.29.
The result for “BAG family molecular chaperone regulator 3 P55D, O95817” reads -0.281 ± 0.39; that for “BAG family molecular chaperone regulator 3 P55E, O95817”, -0.8 ± 0.36.
Consider “BAG family molecular chaperone regulator 3 P55F, O95817”, for which the abundance fitness is -0.012 ± 0.13.
Next, “BAG family molecular chaperone regulator 3 P55H, O95817”: -0.636 ± 0.46.
In turn, “BAG family molecular chaperone regulator 3 P55I, O95817” gave an abundance fitness of 0.135 ± 0.16.
“BAG family molecular chaperone regulator 3 P55K, O95817”: the abundance fitness was -0.094 ± 0.12.
“BAG family molecular chaperone regulator 3 P55L, O95817”: the abundance fitness was -0.133 ± 0.095.
The result for “BAG family molecular chaperone regulator 3 P55M, O95817” reads -0.356 ± 0.2.
The result for “BAG family molecular chaperone regulator 3 P55Q, O95817” reads 0.081 ± 0.19.
Take “BAG family molecular chaperone regulator 3 P55R, O95817”: the abundance fitness is -0.306 ± 0.11.
The result for “BAG family molecular chaperone regulator 3 P55S, O95817” reads 0.153 ± 0.17.
On to “BAG family molecular chaperone regulator 3 P55T, O95817”, for which the abundance fitness is -0.427 ± 0.23.
The result for “BAG family molecular chaperone regulator 3 P55W, O95817” reads -0.508 ± 0.28; that for “BAG family molecular chaperone regulator 3 P55Y, O95817”, -0.018 ± 0.29.
Next, “BAG family molecular chaperone regulator 3 P59V, O95817”: 0.263 ± 0.34; “BAG family molecular chaperone regulator 3 Q11A, O95817”: 0.495 ± 0.34.
Next, “BAG family molecular chaperone regulator 3 Q11D, O95817”: -0.046 ± 0.4; “BAG family molecular chaperone regulator 3 Q11G, O95817”: 0.771 ± 0.065; “BAG family molecular chaperone regulator 3 Q11H, O95817”: -0.246 ± 0.26.
For “BAG family molecular chaperone regulator 3 Q11K, O95817”, the abundance fitness was 1.01 ± 0.19.
Next, “BAG family molecular chaperone regulator 3 Q11L, O95817”: -0.227 ± 0.32; “BAG family molecular chaperone regulator 3 Q11M, O95817”: 1.03 ± 0.39; “BAG family molecular chaperone regulator 3 Q11P, O95817”: -0.132 ± 0.41.
“BAG family molecular chaperone regulator 3 Q11R, O95817” had an abundance fitness of 0.463 ± 0.11.
For “BAG family molecular chaperone regulator 3 Q11S, O95817”, the abundance fitness worked out at 0.63 ± 0.11.
Next, “BAG family molecular chaperone regulator 3 Q11T, O95817”: 0.18 ± 0.49; “BAG family molecular chaperone regulator 3 Q11V, O95817”: 0.619 ± 0.1; “BAG family molecular chaperone regulator 3 Q11Y, O95817”: 0.795 ± 0.15.
As for “BAG family molecular chaperone regulator 3 Q33A, O95817”, the abundance fitness came out at 0.032 ± 0.15.
The result for “BAG family molecular chaperone regulator 3 Q33C, O95817” reads -0.352 ± 0.2.
Next, “BAG family molecular chaperone regulator 3 Q33E, O95817”: 0.11 ± 0.064.
“BAG family molecular chaperone regulator 3 Q33F, O95817”: the abundance fitness was -0.183 ± 0.27.
The result for “BAG family molecular chaperone regulator 3 Q33G, O95817” reads 0.128 ± 0.059.
Regarding “BAG family molecular chaperone regulator 3 Q33H, O95817”, the abundance fitness is -0.708 ± 0.49.
The result for “BAG family molecular chaperone regulator 3 Q33I, O95817” reads -0.499 ± 0.35.
The substance “BAG family molecular chaperone regulator 3 Q33K, O95817” gave an abundance fitness of 0.035 ± 0.21.
For “BAG family molecular chaperone regulator 3 Q33M, O95817”, the abundance fitness is -0.29 ± 0.3.
The result for “BAG family molecular chaperone regulator 3 Q33N, O95817” reads -0.357 ± 0.29; that for “BAG family molecular chaperone regulator 3 Q33P, O95817”, -0.591 ± 0.3.
As for “BAG family molecular chaperone regulator 3 Q33S, O95817”, the abundance fitness is -0.265 ± 0.14.
Next, “BAG family molecular chaperone regulator 3 Q33T, O95817”: -0.583 ± 0.3; “BAG family molecular chaperone regulator 3 Q33V, O95817”: -0.428 ± 0.068; “BAG family molecular chaperone regulator 3 Q33W, O95817”: -0.384 ± 0.081.
On to “BAG family molecular chaperone regulator 3 Q33Y, O95817”, for which the abundance fitness was -0.545 ± 0.46.
“BAG family molecular chaperone regulator 3 R19A, O95817”: the abundance fitness was -0.071 ± 0.11.
Next, “BAG family molecular chaperone regulator 3 R19C, O95817”: -0.341 ± 0.19; “BAG family molecular chaperone regulator 3 R19D, O95817”: -0.499 ± 0.31; “BAG family molecular chaperone regulator 3 R19E, O95817”: 0.208 ± 0.15.
Regarding “BAG family molecular chaperone regulator 3 R19F, O95817”, the abundance fitness is -0.743 ± 0.32.
Next, “BAG family molecular chaperone regulator 3 R19G, O95817”: -0.35 ± 0.12; “BAG family molecular chaperone regulator 3 R19H, O95817”: -0.399 ± 0.18.
The substance “BAG family molecular chaperone regulator 3 R19I, O95817” showed an abundance fitness of 0.367 ± 0.17.
The result for “BAG family molecular chaperone regulator 3 R19K, O95817” reads 0.042 ± 0.11; that for “BAG family molecular chaperone regulator 3 R19L, O95817”, -0.455 ± 0.17.
As to “BAG family molecular chaperone regulator 3 R19M, O95817”, the abundance fitness is -0.37 ± 0.28.
As for “BAG family molecular chaperone regulator 3 R19N, O95817”, the abundance fitness was -0.125 ± 0.13.
Regarding “BAG family molecular chaperone regulator 3 R19P, O95817”, the abundance fitness is -0.253 ± 0.23.
The result for “BAG family molecular chaperone regulator 3 R19Q, O95817” reads -0.333 ± 0.084; that for “BAG family molecular chaperone regulator 3 R19S, O95817”, -0.006 ± 0.062; that for “BAG family molecular chaperone regulator 3 R19T, O95817”, -0.169 ± 0.096.
For the substance “BAG family molecular chaperone regulator 3 R19V, O95817”, the abundance fitness was -0.221 ± 0.073.
Regarding “BAG family molecular chaperone regulator 3 R19W, O95817”, the abundance fitness is -0.342 ± 0.073.
With “BAG family molecular chaperone regulator 3 R19Y, O95817”, the abundance fitness is -0.27 ± 0.094.
Next, “BAG family molecular chaperone regulator 3 R45C, O95817”: -0.165 ± 0.17; “BAG family molecular chaperone regulator 3 R45D, O95817”: -0.557 ± 0.32; “BAG family molecular chaperone regulator 3 R45E, O95817”: -0.422 ± 0.2.
